Reference: paper PMC5446187, “USP9X counteracts differential ubiquitination of NPHP5 by MARCH7 and BBS11 to regulate ciliogenesis” (PLoS Genetics, 2017)

Assays:
[1] = biological target: T1, GFP-USP9X wild type (mouse) (mouse, UniProt P70398 1-2559); test: co-IP; anti-Flag immunoprecipitation from lysates of HEK293 cells expressing Flag-NPHP5 or its fragments (alone or with GFP-tagged partner), Western blot; settings: partners not purified
T1 construct: mouse USP9X cDNA (from S. Wood) sub-cloned into pEGFP-C1; pEGFP-C1 is expected to place EGFP at the N-terminus (surmise); also called pEGFP-C1-USP9X; purified USP9X; source: HEK293, transfected, in lysate; also purified from HEK293 (anti-GFP immunoprecipitation, 500 mM NaCl washes, kept on beads)

[2] = biological target: T2, GFP-USP9X catalytically inactive mutant (C1566S) (mouse) (mouse, UniProt P70398 1-2559, C1566S); test: as above; settings: partners not purified
T2 construct: mouse USP9X C1566S cDNA (from S. Wood) sub-cloned into pEGFP-C1; pEGFP-C1 is expected to place EGFP at the N-terminus (surmise); also called GFP-USP9X mutant (C1566S); pEGFP-C1-USP9X(C1566S); source: HEK293, transfected, in lysate; also purified from HEK293 (anti-GFP immunoprecipitation, 500 mM NaCl washes, kept on beads)

BBS11/TRIM32, endogenous = biological target: T3, BBS11/TRIM32, endogenous (human (endogenous in HEK293), UniProt Q13049 1-653); test: pull-down; 1 μg purified Flag-NPHP5 mixed with 1 μg purified USP9X, BBS11 or MARCH7 bound to beads, 4°C, 2 h, extensive washing, Western blot; settings: both partners purified
T3 construct: E3 ubiquitin ligase BBS11/TRIM32, endogenous in HEK293; also called endogenous BBS11; source: endogenous, HEK293 lysate; also immunoprecipitated from HEK293 with anti-BBS11 antibody, 500 mM NaCl washes, kept on beads
T3 sequence (looked up): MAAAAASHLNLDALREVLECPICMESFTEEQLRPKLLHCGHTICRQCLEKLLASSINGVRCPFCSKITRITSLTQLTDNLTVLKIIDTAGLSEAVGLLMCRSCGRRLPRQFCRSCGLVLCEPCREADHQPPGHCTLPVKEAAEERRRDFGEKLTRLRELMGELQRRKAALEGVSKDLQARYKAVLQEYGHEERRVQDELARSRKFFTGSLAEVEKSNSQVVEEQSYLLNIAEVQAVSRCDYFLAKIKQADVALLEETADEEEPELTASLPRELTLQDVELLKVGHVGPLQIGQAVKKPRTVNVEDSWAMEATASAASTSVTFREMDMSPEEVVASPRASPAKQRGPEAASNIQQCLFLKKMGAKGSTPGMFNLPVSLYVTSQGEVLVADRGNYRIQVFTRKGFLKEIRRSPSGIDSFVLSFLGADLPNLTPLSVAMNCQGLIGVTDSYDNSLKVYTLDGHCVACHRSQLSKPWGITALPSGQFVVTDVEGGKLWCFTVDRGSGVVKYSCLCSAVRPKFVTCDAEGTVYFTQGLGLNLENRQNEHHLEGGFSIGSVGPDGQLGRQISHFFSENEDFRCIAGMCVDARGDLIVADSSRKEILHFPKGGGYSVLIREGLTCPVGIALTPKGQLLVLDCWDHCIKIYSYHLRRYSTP

[3] = biological target: T4, MARCH7/axotrophin, endogenous (human (endogenous in HEK293), UniProt Q9H992 1-704); test: as above; settings: both partners purified
T4 construct: E3 ubiquitin ligase MARCH7/axotrophin, endogenous in HEK293; also called endogenous MARCH7; source: endogenous, HEK293 lysate; also immunoprecipitated from HEK293 with anti-MARCH7 antibody, 500 mM NaCl washes, kept on beads
T4 sequence (looked up): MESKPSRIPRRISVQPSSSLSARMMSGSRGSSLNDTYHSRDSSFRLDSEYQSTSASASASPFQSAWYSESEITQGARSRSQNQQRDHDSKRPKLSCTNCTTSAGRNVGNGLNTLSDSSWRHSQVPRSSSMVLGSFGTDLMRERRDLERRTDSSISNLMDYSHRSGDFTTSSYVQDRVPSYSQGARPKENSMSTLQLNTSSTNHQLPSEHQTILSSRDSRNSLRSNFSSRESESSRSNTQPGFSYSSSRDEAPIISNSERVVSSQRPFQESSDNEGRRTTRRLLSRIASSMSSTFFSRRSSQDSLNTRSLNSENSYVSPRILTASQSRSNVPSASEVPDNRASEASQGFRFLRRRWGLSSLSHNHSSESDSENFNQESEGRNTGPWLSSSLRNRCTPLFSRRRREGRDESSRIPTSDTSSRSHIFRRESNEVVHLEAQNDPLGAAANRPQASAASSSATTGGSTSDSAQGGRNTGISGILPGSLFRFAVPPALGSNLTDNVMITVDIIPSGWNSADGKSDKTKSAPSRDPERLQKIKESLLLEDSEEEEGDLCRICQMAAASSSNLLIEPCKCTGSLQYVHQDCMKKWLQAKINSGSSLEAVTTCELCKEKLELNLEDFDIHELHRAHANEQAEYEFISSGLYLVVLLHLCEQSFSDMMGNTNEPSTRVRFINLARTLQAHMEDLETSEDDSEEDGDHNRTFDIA

T1 sequence (P70398 whole entry, the tested form may be a part): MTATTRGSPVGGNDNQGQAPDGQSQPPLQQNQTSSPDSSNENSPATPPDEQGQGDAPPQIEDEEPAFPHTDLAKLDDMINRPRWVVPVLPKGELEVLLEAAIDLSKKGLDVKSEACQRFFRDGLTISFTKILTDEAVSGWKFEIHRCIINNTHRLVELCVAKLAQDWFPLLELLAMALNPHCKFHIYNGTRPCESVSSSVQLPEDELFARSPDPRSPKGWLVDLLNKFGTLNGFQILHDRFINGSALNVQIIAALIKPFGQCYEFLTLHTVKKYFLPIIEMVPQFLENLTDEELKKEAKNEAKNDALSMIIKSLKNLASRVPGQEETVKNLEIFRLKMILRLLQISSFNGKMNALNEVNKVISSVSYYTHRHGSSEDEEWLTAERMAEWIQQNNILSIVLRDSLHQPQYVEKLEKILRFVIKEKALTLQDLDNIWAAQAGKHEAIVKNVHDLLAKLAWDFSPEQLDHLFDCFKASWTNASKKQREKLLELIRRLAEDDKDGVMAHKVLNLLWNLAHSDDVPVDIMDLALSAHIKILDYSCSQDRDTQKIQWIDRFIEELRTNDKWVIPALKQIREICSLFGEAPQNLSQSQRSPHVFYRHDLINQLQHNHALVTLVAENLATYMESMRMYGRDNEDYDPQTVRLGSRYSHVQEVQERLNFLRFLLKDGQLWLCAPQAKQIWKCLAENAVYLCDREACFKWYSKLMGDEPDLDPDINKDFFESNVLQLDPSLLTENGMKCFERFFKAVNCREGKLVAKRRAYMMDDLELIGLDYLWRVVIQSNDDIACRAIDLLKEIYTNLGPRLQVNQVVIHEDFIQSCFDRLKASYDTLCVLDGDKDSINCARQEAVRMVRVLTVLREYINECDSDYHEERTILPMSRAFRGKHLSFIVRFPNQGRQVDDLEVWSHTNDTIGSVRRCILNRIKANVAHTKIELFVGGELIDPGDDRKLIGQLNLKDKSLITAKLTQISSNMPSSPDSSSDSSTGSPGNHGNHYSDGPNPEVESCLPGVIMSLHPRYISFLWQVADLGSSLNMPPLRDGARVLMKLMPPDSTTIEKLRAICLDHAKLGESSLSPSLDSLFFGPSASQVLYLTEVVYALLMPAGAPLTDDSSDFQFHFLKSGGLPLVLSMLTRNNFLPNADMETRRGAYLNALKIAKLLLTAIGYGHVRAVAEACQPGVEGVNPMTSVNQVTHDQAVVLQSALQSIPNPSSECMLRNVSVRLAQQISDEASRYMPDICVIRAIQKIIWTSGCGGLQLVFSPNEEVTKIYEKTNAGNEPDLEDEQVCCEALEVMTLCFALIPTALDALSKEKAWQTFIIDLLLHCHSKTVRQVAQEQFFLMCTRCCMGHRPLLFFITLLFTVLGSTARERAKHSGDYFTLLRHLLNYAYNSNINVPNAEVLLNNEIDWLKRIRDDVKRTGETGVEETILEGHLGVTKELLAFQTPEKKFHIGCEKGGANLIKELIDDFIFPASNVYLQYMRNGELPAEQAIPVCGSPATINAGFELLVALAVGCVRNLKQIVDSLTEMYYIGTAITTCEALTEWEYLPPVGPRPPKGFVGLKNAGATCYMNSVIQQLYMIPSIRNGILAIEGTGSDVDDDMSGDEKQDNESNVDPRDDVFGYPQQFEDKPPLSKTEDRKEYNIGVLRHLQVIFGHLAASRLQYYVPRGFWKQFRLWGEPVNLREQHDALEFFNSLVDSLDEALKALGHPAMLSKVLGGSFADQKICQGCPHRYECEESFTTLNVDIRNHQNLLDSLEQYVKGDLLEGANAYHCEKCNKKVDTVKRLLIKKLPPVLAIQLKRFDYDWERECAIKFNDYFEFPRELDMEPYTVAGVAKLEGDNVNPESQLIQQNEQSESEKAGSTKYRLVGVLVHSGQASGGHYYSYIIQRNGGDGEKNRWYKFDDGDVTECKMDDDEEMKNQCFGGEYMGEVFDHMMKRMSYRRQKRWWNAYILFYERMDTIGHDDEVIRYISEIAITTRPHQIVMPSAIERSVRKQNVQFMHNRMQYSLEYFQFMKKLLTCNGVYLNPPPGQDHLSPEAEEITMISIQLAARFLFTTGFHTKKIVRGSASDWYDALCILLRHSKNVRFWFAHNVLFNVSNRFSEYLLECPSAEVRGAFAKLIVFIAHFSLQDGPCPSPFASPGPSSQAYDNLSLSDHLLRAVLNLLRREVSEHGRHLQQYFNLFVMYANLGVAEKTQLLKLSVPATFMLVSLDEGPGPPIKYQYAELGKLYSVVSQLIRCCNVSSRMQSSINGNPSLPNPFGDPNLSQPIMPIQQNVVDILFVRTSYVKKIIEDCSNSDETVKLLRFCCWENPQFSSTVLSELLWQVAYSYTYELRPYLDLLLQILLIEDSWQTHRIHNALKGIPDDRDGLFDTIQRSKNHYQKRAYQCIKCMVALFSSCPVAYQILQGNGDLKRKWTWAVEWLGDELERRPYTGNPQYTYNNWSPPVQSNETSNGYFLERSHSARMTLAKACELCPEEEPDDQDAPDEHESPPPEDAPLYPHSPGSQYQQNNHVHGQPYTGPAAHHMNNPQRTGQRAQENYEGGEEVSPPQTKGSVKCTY
T2 sequence (P70398 whole entry C1566S): as the sequence (P70398 whole entry, the tested form may be a part) above, with C1566S counted along it

- binding result [1]: binds
- binding result [2]: binds
- binding result (BBS11/TRIM32, endogenous): binds
- binding result [3]: binds
B1: Flag-NPHP5 (nephrocystin-5), full length 1-598 (natural protein, UniProt Q15051 1-598, looked up)
chain: MKPTGTDPRILSIAAEVAKSPEQNVPVILLKLKEIINITPLGSSELKKIKQDIYCYDLIQYCLLVLSQDYSRIQGGWTTISQLTQILSHCCVGLEPGEDAEEFYNELLPSAAENFLVLGRQLQTCFINAAKAEEKDELLHFFQIVTDSLFWLLGGHVELIQNVLQSDHFLHLLQADNVQIGSAVMMMLQNILQINSGDLLRIGRKALYSILDEVIFKLFSTPSPVIRSTATKLLLLMAESHQEILILLRQSTCYKGLRRLLSKQETGTEFSQELRQLVGLLSPMVYQEVEEQKLHQAACLIQAYWKGFQTRKRLKKLPSAVIALQRSFRSKRSKMLLEINRQKEEEDLKLQLQLQRQRAMRLSRELQLSMLEIVHPGQVEKHYREMEEKSALIIQKHWRGYRERKNFHQQRQSLIEYKAAVTLQRAALKFLAKCRKKKKLFAPWRGLQELTDARRVELKKRVDDYVRRHLGSPMSDVVSRELHAQAQERLQHYFMGRALEERAQQHREALIAQISTNVEQLMKAPSLKEAEGKEPELFLSRSRPVAAKAKQAHLTTLKHIQAPWWKKLGEESGDEIDVPKDELSIELENLFIGGTKPP
notes: also called IQCB1; source: HEK293, transfected, in lysate; also purified from HEK293 (anti-Flag immunoprecipitation, 500 mM NaCl washes, eluted with Flag peptide)
